One assay concerns the target Human BCMA (human) (UniProt Q02223). Put plainly: SPR, IgG on chip, huBCMA analyte. For orientation: Surface plasmon resonance follows binding to a sensor surface in real time, without labels.
Another assay deals with T1, cynomolgus monkey BCMA (cynomolgus monkey, UniProt A0A2K5UD97 1-53).
T1 construct: Soluble analyte in SPR; construct not described; also called cyBCMA; Cyno BCMA
The assay can be described thus: SPR, IgG on chip, cyBCMA analyte.

As a reminder, the Kd is a measure of binding affinity in units of concentration. One may read the koff as the rate constant with which the complex falls apart. The kon is a measure of how fast the partners come together.

T1 sequence (A0A2K5UD97 entry or part of it): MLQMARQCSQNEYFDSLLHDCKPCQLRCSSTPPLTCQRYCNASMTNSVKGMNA

B1: COMBO_Rd4_0.6nM_C20 (antibody, V domains shown)
VH: EVQLLESGGGLVQPGGSLRLSCAASGFTFSSYPMSWVRQAPGKGLEWVSAIGGSGGSLPYADSVKGRFTISRDNSKNTLYLQMNSLRAEDTAVYYCARYWPMDSWGQGTLVTVSS
VL: EIVLTQSPGTLSLSPGERATLSCRASQSVSYLYLAWYQQKPGQAPRLLMYDASIRATGIPDRFSGSGSGTDFTLTISRLEPEDFAVYYCQQYMEWPLTFGQGTKVEIK
notes: IgG
In the case of B1, in the assay with Human BCMA (human), the Kd came out at 0.019 nM, the koff stood at 0.000146 s⁻¹ and the on-rate (kon) turned out to be 7.65e+06 M⁻¹ s⁻¹. Further, in the assay with cynomolgus monkey BCMA, the Kd was found to be 0.092 nM, the koff is 0.000284 s⁻¹ and the kon was 3.09e+06 M⁻¹ s⁻¹.

B2: COMBO_Rd4_6nM_C12 (antibody, V domains shown)
VH: EVQLLESGGGLVQPGGSLRLSCAASGFTFSSYPMSWVRQAPGKGLEWVSAALGSGGSTYYADSVKGRFTISRDNSKNTLYLQMNSLRAEDTAVYYCARYWPMDSWGQGTLVTVS
VL: EIVLTQSPGTLSLSPGERATLSCRASQSVSASYLAWYQQKPGQAPRLLMYDASIRATGIPDRFSGSGSGTDFTLTISRLEPEDFAVYYCQQYMSWPLTFGQGTKVEIK
notes: IgG
In the assay with Human BCMA (human), B2 came in with a Kd of 0.02 nM, a koff of 0.00027 s⁻¹ and an on-rate constant (kon) of 1.38e+07 M⁻¹ s⁻¹. Also, in the assay with cynomolgus monkey BCMA, binding was characterised by a dissociation constant (Kd) of 0.148 nM, the koff came to 0.000486 s⁻¹ and the kon stood at 3.29e+06 M⁻¹ s⁻¹.

B3: COMBO_Rd4_6nM_C22 (antibody, V domains shown)
VH: EVQLLESGGGLVQPGGSLRLSCAASGFTFSSYAMNWVRQAPGKGLEWVSACLDSGGSTYYADSVKGRFTISRDNSKNTLYLQMNSLRAEDTAVYYCARYWPMDSWGQGTLVTVSS
VL: EIVLTQSPGTLSLSPGERATLSCRASQSVSSSYLAWYQQKPGQAPRLLMYDASIRATGIPDRFSGSGSGTDFTLTISRLEPEDFAVYYCQQYQGWPLTFGQGTKVEIK
notes: IgG
For the molecule B3, in the assay with Human BCMA (human), the Kd was 0.256 nM, the koff came out at 0.000775 s⁻¹ and the kon amounted to 3.03e+06 M⁻¹ s⁻¹. In addition, in the assay with cynomolgus monkey BCMA, the equilibrium dissociation constant (Kd) was determined as 0.972 nM, the koff is 0.00165 s⁻¹ and the kon stood at 1.7e+06 M⁻¹ s⁻¹.

B4: COMBO_Rd4_6nM_C08 (antibody, V domains shown)
VH: EVQLLESGGGLVQPGGSLRLSCAASGFTFSSYPMSWVRQAPGKGLEWVSAIGGSGTWTYYADSVKGRFTISRDNSKNTLYLQMNSLRAEDTAVYYCARYWPMDSWGQGTLVTVSS
VL: EIVLTQSPGTLSLSPGERATLSCRASQSVSSSYLAWYQQKPGQAPRLLMYDASIRATGIPDRFSGSGSGTDFTLTISRLEPEDFAVYYCQQYQKWPLTFGQGTKVEIK
notes: IgG
B4: in the assay with Human BCMA (human), the Kd stood at 0.019 nM, the koff worked out at 0.000169 s⁻¹ and the on-rate (kon) is 8.99e+06 M⁻¹ s⁻¹. In the assay with cynomolgus monkey BCMA, this molecule had a Kd of 0.14 nM, a koff of 0.000428 s⁻¹ and a kon of 3.06e+06 M⁻¹ s⁻¹.

B5: COMBO_Rd4_0.6nM_C23 (antibody, V domains shown)
VH: EVQLLESGGGLVQPGGSLRLSCAASGFTFSSYPMSWVRQAPGKGLEWVSALFGSGGSTYYADSVKGRFTISRDNSKNTLYLQMNSLRAEDTAVYYCARYWPMDSWGQGTLVTVSS
VL: EIVLTQSPGTLSLSPGERATLSCRPRQSVSSSYLAWYQQKPGQAPRLLMYDASIRATGIPDRFSGSGSGTDFTLTISRLEPEDFAVYYCQQYQDWPLTFGQGTKVEIK
notes: IgG
B5: in the assay with Human BCMA (human), the Kd turned out to be 0.028 nM, the koff worked out at 0.00021 s⁻¹ and the kon amounted to 7.39e+06 M⁻¹ s⁻¹. In the assay with cynomolgus monkey BCMA, this molecule came in with a Kd of 0.189 nM, a koff of 0.000531 s⁻¹ and a kon of 2.81e+06 M⁻¹ s⁻¹.

B6: P5C1_VHVL (antibody, V domains shown)
VH: EVQLLESGGGLVQPGGSLRLSCAASGFTFSSYPMSWVRQAPGKGLEWVSAIGGSGGSTYYADSVKGRFTISRDNSKNTLYLQMNSLRAEDTAVYYCARYWPMDSWGQGTLVTVSS
VL: EIVLTQSPGTLSLSPGERATLSCRASQSVSSTYLAWYQQKPGQAPRLLIYDASSRAPGIPDRFSGSGSGTDFTLTISRLEPEDFAVYYCQQYSTSPLTFGQGTKVEIK
notes: IgG; also called PC1
In the assay with Human BCMA (human), B6 gave a Kd of 5.99 nM, a koff of 0.0692 s⁻¹ and a kon of 1.16e+07 M⁻¹ s⁻¹. In the assay with cynomolgus monkey BCMA, this molecule showed a Kd of 15.2 nM, a koff of 0.0538 s⁻¹ and a kon of 3.53e+06 M⁻¹ s⁻¹.

B7: COMBO_Rd4_6nM_C10 (antibody, V domains shown)
VH: EVQLLESGGGLVQPGGSLRLSCAASGFTFSSYPMSWVRQAPGKGLEWVSAIGGSGGSIHYADSVKGRFTISRDNSKNTLYLQMNSLRAEDTAVYYCARYWPMDSWGQGTLVTVSS
VL: EIVLTQSPGTLSLSPGERATLSCRASQSVSSSYWGWYQQKPGQAPRLLMYDASIRATGIPDRFSGSGSGTDFTLTISRLEPEDFAVYYCQQYQCWPLTFGQGTKVEIK
notes: IgG
In the assay with Human BCMA (human), B7 had a Kd of 0.018 nM, a koff of 9.72e-05 s⁻¹ and a kon of 5.47e+06 M⁻¹ s⁻¹. Also, in the assay with cynomolgus monkey BCMA, binding was characterised by a dissociation constant (Kd) of 0.105 nM, the koff is 0.00016 s⁻¹ and the kon worked out at 1.52e+06 M⁻¹ s⁻¹.

B8: COMBO_Rd4_6nM_C07 (antibody, V domains shown)
VH: EVQLLESGGGLVQPGGSLRLSCAASGFTFSSYPMSWVRQAPGKGLEWVSAIGGSGGSLPYADSVKGRFTISRDNSKNTLYLQMNSLRAEDTAVYYCARYWPMADWGQGTLVTVSS
VL: EIVLTQSPGTLSLSPGERATLSCRASQPISSSYLAWYQQKPGQAPRLLMYDASIRATGIPDRFSGSGSGTDFTLTISRLEPEDFAVYYCQQYQGWPLTFGQGTKVEIK
notes: IgG
B8: in the assay with Human BCMA (human), the Kd came to 0.035 nM, the koff came to 0.000371 s⁻¹ and the kon was 1.05e+07 M⁻¹ s⁻¹. Further, in the assay with cynomolgus monkey BCMA, the Kd was 0.237 nM, the koff worked out at 0.000934 s⁻¹ and the kon turned out to be 3.94e+06 M⁻¹ s⁻¹.

B9: COMBO_Rd4_6nM_C09 (antibody, V domains shown)
VH: EVQLLESGGGLVQPGGSLRLSCAASGFTFSSYPMSWVRQAPGKGLEWVSAIFASGGSTYYADSVKGRFTISRDNSKNTLYLQMNSLRAEDTAVYYCARYWPMDSWGQGTLVTVSS
VL: EIVLTQSPGTLSLSPGERATLSCRASQSVSAQYLAWYQQKPGQAPRLLMYDASIRATGIPDRFSGSGSGTDFTLTISRLEPEDFAVYYCQQYQAWPLTFGQGTKVEIK
notes: IgG
In the assay with Human BCMA (human), B9 displayed a Kd of 0.016 nM, an off-rate constant (koff) of 0.000143 s⁻¹ and a kon of 8.85e+06 M⁻¹ s⁻¹. In the assay with cynomolgus monkey BCMA, this molecule gave a Kd of 0.134 nM, a koff of 0.000318 s⁻¹ and a kon of 2.37e+06 M⁻¹ s⁻¹.

B10: COMBO_Rd4_6nM_C02 (antibody, V domains shown)
VH: EVQLLESGGGLVQPGGSLRLSCAASGFTFSSYAMNWVRQAPGKGLEWVSAISDSGGFVYYADSVKGRFTISRDNSKNTLYLQMNSLRAEDTAVYYCARYWPMDSWGQGTLVTVSS
VL: EIVLTQSPGTLSLSPGERATLSCRASQSVSSSYLAWYQQKPGQAPRLLMYDASIRATGIPDRFSGSGSGTDFTLTISRLEPEDFAVYYCQQYEFWPLTFGQGTKVEIK
notes: IgG
In the assay with Human BCMA (human), B10 gave a Kd of 0.422 nM, a koff of 0.000443 s⁻¹ and a kon of 1.05e+06 M⁻¹ s⁻¹. In the assay with cynomolgus monkey BCMA, this molecule showed a Kd of 1.71 nM, a koff of 0.00136 s⁻¹ and a kon of 795000 M⁻¹ s⁻¹.

B11: COMBO_Rd4_6nM_C11 (antibody, V domains shown)
VH: EVQLLESGGGLVQPGGSLRLSCAASGFTFSSYPMSWVRQAPGKGLEWVSAIGGSGGSLGYADSVKGRFTISRDNSKNTLYLQMNSLRAEDTAVYYCARYWPMDSWGQGTLVTVSS
VL: EIVLTQSPGTLSLSPGERATLSCRASQSVSPLYLAWYQQKPGQAPRLLMYDASIRATGIPDRFSGSGSGTDFTLTISRLEPEDFAVYYCQQYKAWPLTFGQGTKVEIK
notes: IgG
In the assay with Human BCMA (human), B11 showed a Kd of 0.018 nM, a koff of 0.000124 s⁻¹ and a kon of 6.74e+06 M⁻¹ s⁻¹. In the assay with cynomolgus monkey BCMA, this molecule returned a Kd of 0.156 nM, a koff of 0.000412 s⁻¹ and a kon of 2.64e+06 M⁻¹ s⁻¹.

B12: COMBO_Rd4_0.6nM_C30 (antibody, V domains shown)
VH: EVQLLESGGGLVQPGGSLRLSCAASGFTFSSYPMSWVRQAPGKGLEWVSAIGGSGGSTYYADSVKGRFTISRDNSKNTLYLQMNSLRAEDTAVYYCARYWPMDSWGQGTLVTVSS
VL: EIVLTQSPGTLSLSPGERATLSCRASQSVSYMYLAWYQQKPGQAPRLLIYDASIRATGIPDRFSGSGSGTDFTLTISRLEPEDFAVYYCQQYKSWPLTFGQGTKVEIK
notes: IgG
In the assay with Human BCMA (human), B12 returned a Kd of 0.065 nM, a koff of 0.000282 s⁻¹ and a kon of 4.35e+06 M⁻¹ s⁻¹. Moreover, in the assay with cynomolgus monkey BCMA, binding was put at a Kd of 0.481 nM, the koff was 0.000808 s⁻¹ and the kon is 1.68e+06 M⁻¹ s⁻¹.

B13: COMBO_Rd4_6nM_C25 (antibody, V domains shown)
VH: EVQLLESGGGLVQPGGSLRLSCAASGFTFSSYPMSWVRQAPGKGLEWVSAIGGSGGSTYYADSVKGRFTISRDNSKNTLYLQMNSLRAEDTAVYYCARYWPMDPWGQGTLVTVSS
VL: EIVLTQSPGTLSLSPGERATLSCRASQSVSSPYLAWYQQKPGQAPRLLMYDASIRATGIPDRFSGSGSGTDFTLTISRLEPEDFAVYYCQQYQSWPLTFGQGTKVEIK
notes: IgG
As for B13, in the assay with Human BCMA (human), the Kd turned out to be 0.014 nM, the koff came to 0.000113 s⁻¹ and the kon worked out at 7.98e+06 M⁻¹ s⁻¹. In the assay with cynomolgus monkey BCMA, this molecule showed a Kd of 0.079 nM, a koff of 0.000226 s⁻¹ and a kon of 2.85e+06 M⁻¹ s⁻¹.

B14: COMBO_Rd4_6nM_C21 (antibody, V domains shown)
VH: EVQLLESGGGLVQPGGSLRLSCAASGFTFSSYPMSWVRQAPGKGLEWVSAIGGSGGSLPYADSVKGRFTISRDNSKNTLYLQMNSLRAEDTAVYYCARYWPMDSWGQGTLVTVSS
VL: EIVLTQSPGTLSLSPGERATLSCRASQSVSAAYLAWYQQKPGQAPRLLMYDASIRATGIPDRFSGSGSGTDFTLTISRLEPEDFAVYYCQQYMCWPLTFGQGTKVEIK
notes: IgG
Take B14: in the assay with Human BCMA (human), the Kd amounted to 0.006 nM, the dissociation rate constant (koff) came to 7.34e-05 s⁻¹ and the kon worked out at 1.17e+07 M⁻¹ s⁻¹. For the same molecule, in the assay with cynomolgus monkey BCMA, the affinity, expressed as Kd, was 0.078 nM; the koff amounted to 0.000248 s⁻¹; the kon came to 3.17e+06 M⁻¹ s⁻¹.

B15: P5A2_VHVL (antibody, V domains shown)
VH: EVQLLESGGGLVQPGGSLRLSCAASGFTFSSYAMNWVRQAPGKGLEWVSAISDSGGSTYYADSVKGRFTISRDNSKNTLYLQMNSLRAEDTAVYYCARYWPMDIWGQGTLVTVSS
VL: EIVLTQSPGTLSLSPGERATLSCRASQSVSSSYLAWYQQKPGQAPRLLMYDASIRATGIPDRFSGSGSGTDFTLTISRLEPEDFAVYYCQQYGSWPLTFGQGTKVEIK
notes: IgG
Regarding B15, in the assay with Human BCMA (human), the Kd stood at 5.57 nM, the koff came out at 0.0387 s⁻¹ and the kon was 6.96e+06 M⁻¹ s⁻¹. In the assay with cynomolgus monkey BCMA, the Kd worked out at 10.2 nM, the off-rate (koff) is 0.0164 s⁻¹ and the kon stood at 1.61e+06 M⁻¹ s⁻¹.

(Values after patent publication US20190241669A1 (published 2019).)
